Values quoted from earlier work, collected in paper PMC3617488 (European journal of nuclear medicine and molecular imaging, 2011).

Key:
[1] = human

Substance	Plasma half-life (comparison with exendin-4)	Half-life of the parent peptide [1]
AC3174: exendin-4 analog which contains a leucine for methionine substitution	shorter plasma half-life	
exendin-4: subcutaneously administered peptide drug used in the treatment of type 2 diabetes		9.57 h
